Common to all, as to experiment: AUC; sedimentation velocity, 42 000 rpm, 20°C, 20 mM Tris pH 8, 0.15 M NaCl, 1 mM TCEP, absorbance at 280 nm, c(S) analysis with SEDFIT
Details in all cases: both partners purified

The target in assay [1] is T1, DmMis12a complex (Mis12:Nnf1a:Kmn1) (Drosophila melanogaster, UniProt Q9VS01 1-181; Q7JZC9 1-194; Q9VYX4 1-183).
T1 construct: Mis12 subunit of the Drosophila melanogaster Mis12 complex; Nnf1a (Nnf1R-1), Drosophila melanogaster; Kmn1, the Nsl1 orthologue of Drosophila melanogaster; source: E. coli BL21(DE3) Rosetta, co-expressed (pST44), purified (His-Trap, ResourceQ, Superdex 200); copies: 1 + 1 + 1
T1 sequence (looked up) 1: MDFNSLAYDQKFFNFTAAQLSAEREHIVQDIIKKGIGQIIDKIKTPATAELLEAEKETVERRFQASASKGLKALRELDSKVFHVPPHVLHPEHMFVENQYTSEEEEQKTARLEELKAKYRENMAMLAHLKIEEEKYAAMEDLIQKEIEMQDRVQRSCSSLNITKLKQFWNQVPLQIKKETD
T1 sequence (looked up) 2: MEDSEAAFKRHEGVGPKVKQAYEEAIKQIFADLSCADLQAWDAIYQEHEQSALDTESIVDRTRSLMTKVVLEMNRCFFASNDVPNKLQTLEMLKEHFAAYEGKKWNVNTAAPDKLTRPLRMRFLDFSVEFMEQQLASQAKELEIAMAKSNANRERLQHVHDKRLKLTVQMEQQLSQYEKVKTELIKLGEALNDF
T1 sequence (looked up) 3: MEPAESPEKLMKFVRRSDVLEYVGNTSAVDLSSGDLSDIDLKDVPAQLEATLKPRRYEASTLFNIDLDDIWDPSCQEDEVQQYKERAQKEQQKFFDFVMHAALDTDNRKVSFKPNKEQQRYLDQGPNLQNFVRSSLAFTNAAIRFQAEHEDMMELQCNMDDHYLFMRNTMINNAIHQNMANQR

The target in assay [2] is T2, DmMis12b complex (Mis12:Nnf1b:Kmn1) (Drosophila melanogaster, UniProt Q9VS01 1-181; Q8IPW3 1-204; Q9VYX4 1-183).
T2 construct: Mis12 subunit of the Drosophila melanogaster Mis12 complex; Nnf1b (Nnf1R-2), Drosophila melanogaster; Kmn1, the Nsl1 orthologue of Drosophila melanogaster; source: E. coli BL21(DE3) Rosetta, co-expressed (pST44), purified (His-Trap, ResourceQ, Superdex 200); copies: 1 + 1 + 1
T2 sequence (looked up) 1: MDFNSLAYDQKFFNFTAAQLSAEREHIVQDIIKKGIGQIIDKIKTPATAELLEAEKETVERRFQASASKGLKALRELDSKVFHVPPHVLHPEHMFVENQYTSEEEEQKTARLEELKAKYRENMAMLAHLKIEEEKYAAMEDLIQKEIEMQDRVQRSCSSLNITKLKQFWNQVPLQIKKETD
T2 sequence (looked up) 2: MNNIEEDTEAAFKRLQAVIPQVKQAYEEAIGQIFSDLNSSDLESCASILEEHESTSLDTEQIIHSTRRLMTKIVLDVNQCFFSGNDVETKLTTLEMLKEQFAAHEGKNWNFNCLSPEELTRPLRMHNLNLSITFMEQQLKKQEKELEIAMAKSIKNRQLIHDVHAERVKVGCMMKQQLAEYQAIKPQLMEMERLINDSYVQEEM
T2 sequence (looked up) 3: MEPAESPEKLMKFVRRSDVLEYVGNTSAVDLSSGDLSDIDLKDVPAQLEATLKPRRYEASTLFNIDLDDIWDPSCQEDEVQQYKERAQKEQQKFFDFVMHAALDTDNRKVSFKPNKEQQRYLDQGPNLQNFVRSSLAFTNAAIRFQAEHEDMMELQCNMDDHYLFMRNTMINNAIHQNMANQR

The target of assay [3] is T3, Mis12a:Spc105R^1707–1960 complex (Drosophila melanogaster, UniProt Q9VS01 1-181; Q7JZC9 1-194; Q9VYX4 1-183; M9PIC9 1707-1960).
T3 construct: Mis12 subunit of the Drosophila melanogaster Mis12 complex; Nnf1a (Nnf1R-1), Drosophila melanogaster; Kmn1, the Nsl1 orthologue of Drosophila melanogaster; source: E. coli BL21(DE3) Rosetta, co-expressed (pST44), purified (His-Trap, ResourceQ, Superdex 200); copies: 1 + 1 + 1 + 1
T3 sequence (looked up) 1: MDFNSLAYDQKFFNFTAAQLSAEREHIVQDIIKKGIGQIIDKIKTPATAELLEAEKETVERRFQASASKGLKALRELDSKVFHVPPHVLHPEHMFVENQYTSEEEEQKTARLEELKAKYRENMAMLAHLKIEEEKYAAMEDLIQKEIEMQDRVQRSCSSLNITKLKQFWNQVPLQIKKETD
T3 sequence (looked up) 2: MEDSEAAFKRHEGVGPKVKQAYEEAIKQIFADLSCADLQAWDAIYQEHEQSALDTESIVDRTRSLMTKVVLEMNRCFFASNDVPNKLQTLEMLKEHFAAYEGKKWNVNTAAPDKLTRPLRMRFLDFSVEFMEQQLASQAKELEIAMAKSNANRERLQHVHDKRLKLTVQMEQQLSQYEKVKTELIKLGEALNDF
T3 sequence (looked up) 3: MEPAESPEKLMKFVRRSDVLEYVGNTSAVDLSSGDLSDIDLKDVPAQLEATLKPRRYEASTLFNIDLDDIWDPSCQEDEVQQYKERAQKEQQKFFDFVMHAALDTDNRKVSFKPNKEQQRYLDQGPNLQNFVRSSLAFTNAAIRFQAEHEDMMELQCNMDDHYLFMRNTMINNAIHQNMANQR
T3 sequence (looked up) 4: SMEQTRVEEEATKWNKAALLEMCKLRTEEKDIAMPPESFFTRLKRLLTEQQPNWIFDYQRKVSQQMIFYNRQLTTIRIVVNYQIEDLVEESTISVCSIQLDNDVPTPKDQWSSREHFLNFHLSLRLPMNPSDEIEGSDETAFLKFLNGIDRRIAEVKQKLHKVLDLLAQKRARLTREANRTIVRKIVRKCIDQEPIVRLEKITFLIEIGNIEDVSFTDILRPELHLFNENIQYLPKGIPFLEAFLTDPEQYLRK

The stoichiometry N is a count of units in the complex or per binding partner.

B1: Spc105R^1707–1960 (domain or fragment, Drosophila melanogaster, UniProt M9PIC9 1707-1960, looked up)
chain: SMEQTRVEEEATKWNKAALLEMCKLRTEEKDIAMPPESFFTRLKRLLTEQQPNWIFDYQRKVSQQMIFYNRQLTTIRIVVNYQIEDLVEESTISVCSIQLDNDVPTPKDQWSSREHFLNFHLSLRLPMNPSDEIEGSDETAFLKFLNGIDRRIAEVKQKLHKVLDLLAQKRARLTREANRTIVRKIVRKCIDQEPIVRLEKITFLIEIGNIEDVSFTDILRPELHLFNENIQYLPKGIPFLEAFLTDPEQYLRK
notes: Soluble only when co-expressed with the Mis12a or Mis12b complex
Regarding B1, the “stoichiometry N” value in assay [1] and in assay [2] was 1 each time.

B2: DmCENP-C^1–105 (domain or fragment, Drosophila melanogaster, UniProt Q9VHP9 1-105, looked up)
chain: MSKPQNNDTLELDDILSQPVKDKERFAAFMMRKLAENKPAQNDNLFGNFKLDFDLDFEVPLIKKSQAKPKSKLPEVQPLGELVSKNSAATEKVNEPPVDQAPNEN
notes: source: E. coli BL21(DE3) Rosetta, purified (His-Trap, ResourceQ, Superdex 200)
As to B2, the “stoichiometry N” value in assay [3] and in assay [1] was 1 each time.

The record behind these values is publication PMC4772808, “Insights from the reconstitution of the divergent outer kinetochore of Drosophila melanogaster” (Open Biology, 2016).
